These results are taken from patent US20120219559A1 (Johns Hopkins, published 2012).

Assay [1] has as its target T1, human B7-H2Ig fusion protein (human, UniProt O75144 19-258).
T1 construct: Ig (Fc) part not given
T1 sequence: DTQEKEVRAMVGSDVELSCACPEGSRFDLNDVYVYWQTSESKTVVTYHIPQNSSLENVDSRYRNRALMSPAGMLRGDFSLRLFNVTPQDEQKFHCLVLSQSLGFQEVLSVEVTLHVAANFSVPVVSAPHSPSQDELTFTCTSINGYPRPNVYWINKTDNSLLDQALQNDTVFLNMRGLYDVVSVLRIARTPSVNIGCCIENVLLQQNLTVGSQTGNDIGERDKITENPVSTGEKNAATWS
Nature of the assay: SPR (BIAcore 3000), ICOSIg injected over B7-H2Ig coupled at 500 RU, 1:1 fit. As to the method:
(§1) Protein interactions were measured and analyzed on a BIAcore 3000 instrument (BIAcore AB, Uppsala, Sweden) performed at 25° C. as described previously (3). […] Hepes, pH 7.4, containing 0.15 M NaCl, 0.005% surfactant P20 (HBS) was used as running buffer. […] All other reagents were purchased from BIAcore. […] The remaining activated carboxyl groups were blocked with 1 M ethanolamine (pH 8.5). Subsequently, the flow cells were extensively washed with HBS to generate a stable baseline. […] The flow cells were regenerated by two consecutive 10-second pulse with 10 mM NaOH. Data was analyzed by BIAevaluation software 4.1 (BIAcore).
A general note: SPR reads the build-up and loss of mass on a sensor chip optically.

In assay [2] the target is T1, human B7-H2Ig fusion protein. The assay is described as above. As to the method: For all experiments, the same fusion proteins were injected into uncoated control flow cells to serve as the control. Binding data was overlaid with the fit of 1:1 interaction model.
as §1, with “Surface Plasmon Resonance. Protein” for “Protein”, “20.” for “(3).”, “pulses” for “pulse”
This is another data set of the same source.

The target in assay [3] is T2, human B7-H1 expressed on 293T cells (human, UniProt Q9NZQ7 19-290).
T2 construct: whole, on cells
T2 sequence (Q9NZQ7 19-290): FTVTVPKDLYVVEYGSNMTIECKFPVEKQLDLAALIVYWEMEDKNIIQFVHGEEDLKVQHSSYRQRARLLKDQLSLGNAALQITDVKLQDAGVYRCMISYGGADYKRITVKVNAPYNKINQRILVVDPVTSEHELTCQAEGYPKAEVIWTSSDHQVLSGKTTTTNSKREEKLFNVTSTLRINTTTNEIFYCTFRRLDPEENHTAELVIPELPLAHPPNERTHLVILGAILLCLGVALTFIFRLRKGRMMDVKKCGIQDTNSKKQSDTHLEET
Nature of the assay: CDS well image, 293T cells transfected with the human gene, stained with the human fusion protein.

The target in assay [4] is T3, human B7-1 (CD80) expressed on 293T cells (human, UniProt P33681 35-288).
T3 construct: whole, on cells
T3 sequence (looked up): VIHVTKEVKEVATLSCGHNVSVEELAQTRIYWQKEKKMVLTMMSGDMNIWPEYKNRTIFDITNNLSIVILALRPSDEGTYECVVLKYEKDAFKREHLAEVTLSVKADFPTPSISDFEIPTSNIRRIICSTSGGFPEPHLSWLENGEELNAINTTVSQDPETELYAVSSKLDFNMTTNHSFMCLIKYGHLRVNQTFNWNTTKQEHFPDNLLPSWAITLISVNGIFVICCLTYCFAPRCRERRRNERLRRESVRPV
Described as above.

The target of assay [5] is T4, human CTLA-4, full length, expressed on cells (CTLA-4+293T cells) (human, UniProt P16410 36-223).
T4 sequence: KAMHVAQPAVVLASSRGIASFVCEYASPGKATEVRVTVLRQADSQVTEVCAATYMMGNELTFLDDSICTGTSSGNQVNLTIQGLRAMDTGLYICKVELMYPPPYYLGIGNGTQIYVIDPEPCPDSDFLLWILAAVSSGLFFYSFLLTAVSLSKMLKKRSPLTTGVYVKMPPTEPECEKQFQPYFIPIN
Described as above.

For assay [6], the target named is T5, human CD28, full length, expressed on cells (CD28+293T cells) (human, UniProt P10747 19-220).
T5 construct: This id also stands for CD28 on purified human T cells in the functional rows; also called CD28+ cells
T5 sequence (P10747 19-220): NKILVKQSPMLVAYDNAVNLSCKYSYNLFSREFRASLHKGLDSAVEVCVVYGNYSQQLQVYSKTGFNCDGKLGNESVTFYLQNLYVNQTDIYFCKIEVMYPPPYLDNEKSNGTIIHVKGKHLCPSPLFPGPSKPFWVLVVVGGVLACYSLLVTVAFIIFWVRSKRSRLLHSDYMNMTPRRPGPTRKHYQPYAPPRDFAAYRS
The assay is described as above.

In assay [7] the target is T6, human ICOS, full length, expressed on cells (ICOS+293T cells) (human, UniProt Q9Y6W8 21-199).
T6 construct: This id also stands for ICOS on human T cells in the functional rows
T6 sequence: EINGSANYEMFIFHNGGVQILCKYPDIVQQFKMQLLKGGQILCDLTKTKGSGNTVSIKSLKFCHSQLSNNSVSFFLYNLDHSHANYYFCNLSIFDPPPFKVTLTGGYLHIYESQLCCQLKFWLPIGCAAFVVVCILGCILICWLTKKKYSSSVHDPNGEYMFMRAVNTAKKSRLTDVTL
The assay is described as above.

Assay [8] deals with T7, human B7-DC expressed on 293T cells (human, UniProt Q9BQ51 20-273).
T7 construct: whole, on cells
T7 sequence (looked up): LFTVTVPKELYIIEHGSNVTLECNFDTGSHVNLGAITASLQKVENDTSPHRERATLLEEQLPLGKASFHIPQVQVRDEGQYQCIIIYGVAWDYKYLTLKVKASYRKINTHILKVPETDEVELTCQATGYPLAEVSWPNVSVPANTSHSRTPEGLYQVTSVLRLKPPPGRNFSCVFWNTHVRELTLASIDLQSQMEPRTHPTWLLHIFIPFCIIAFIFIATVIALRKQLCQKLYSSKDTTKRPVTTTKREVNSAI
The description is as above.

Assay [9] addresses T8, human B7-2 (CD86, B70) expressed on 293T cells (human, UniProt P42081 24-329).
T8 construct: whole, on cells
T8 sequence (looked up): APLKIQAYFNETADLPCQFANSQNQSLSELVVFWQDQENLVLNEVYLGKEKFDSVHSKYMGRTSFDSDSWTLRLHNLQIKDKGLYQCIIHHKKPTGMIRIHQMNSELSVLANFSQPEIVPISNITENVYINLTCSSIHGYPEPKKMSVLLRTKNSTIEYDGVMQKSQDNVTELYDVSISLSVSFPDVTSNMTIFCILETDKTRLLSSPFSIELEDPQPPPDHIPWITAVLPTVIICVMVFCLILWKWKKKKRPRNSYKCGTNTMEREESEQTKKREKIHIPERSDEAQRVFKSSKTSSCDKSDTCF
The assay is described as above.

What is called Kd is the concentration at which binding is half-saturated. A higher Kd goes with weaker binding.

Where two headings read alike, the source gives them in different places.

B1: human ICOSIg fusion protein (Fc fusion)
chain: EINGSANYEMFIFHNGGVQILCKYPDIVQQFKMQLLKGGQILCDLTKTKGSGNTVSIKSLKFCHSQLSNNSVSFFLYNLDHSHANYYFCNLSIFDPPPFKVTLTGGYLHIYESQLCCQLKF
notes: Bought from R&D Systems; Ig (Fc) part not given
As to B1, the Kd in assay [1] and in [2] was 16 nM throughout. In addition, the binding result in [3], in [4], in [5], in [6], in [7] and in assay [8] was “no binding” each time. In assay [9], the binding result is “no binding”.
